The source of these data is paper PMC5374589.

In this experiment the target is Murine PD-L1 (murine) (UniProt Q9EP73).
UniProt Q9EP73, sequence (Q9EP73 19-290): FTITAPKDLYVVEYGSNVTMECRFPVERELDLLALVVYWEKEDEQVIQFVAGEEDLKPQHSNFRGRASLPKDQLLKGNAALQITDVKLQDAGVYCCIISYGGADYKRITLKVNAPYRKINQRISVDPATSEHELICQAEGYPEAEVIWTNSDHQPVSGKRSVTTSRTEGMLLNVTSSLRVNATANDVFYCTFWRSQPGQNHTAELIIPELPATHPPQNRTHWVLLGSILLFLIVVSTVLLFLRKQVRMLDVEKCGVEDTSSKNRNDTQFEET

The substance PD-1-CD28 fusion receptor showed a T cell-induced lysis of EG7-PD-L1 target cells in co-culture with PD-1-CD28 fusion receptor transduced OVA-specific CD8+ T cells of 3 fold.
